Experiments:
[1] = target: huIL-17RA-FLAG-polyHis (human) (UniProt Q96F46); experiment: Luminex binning; huIgG on bead 72 as capture, 2nd mAb A [D00012 FIG. 16B]
[2] = target: huIL-17RA-FLAG-polyHis (human) (UniProt Q96F46); experiment: Luminex binning; huIgG on bead 72 as capture, 2nd mAb B [D00012 FIG. 16B]
[3] = target: huIL-17RA-FLAG-polyHis (human) (UniProt Q96F46); experiment: Luminex binning; huIgG on bead 72 as capture, 2nd mAb C [D00012 FIG. 16B]
[4] = target: huIL-17RA-FLAG-polyHis (human) (UniProt Q96F46); experiment: Luminex binning; huIgG on bead 72 as capture, 2nd mAb D [D00012 FIG. 16B]
[5] = target: huIL-17RA-FLAG-polyHis (human) (UniProt Q96F46); experiment: Luminex binning; huIgG on bead 72 as capture, 2nd mAb E [D00012 FIG. 16B]
[6] = target: huIL-17RA-FLAG-polyHis (human) (UniProt Q96F46); experiment: Luminex binning; huIgG on bead 72 as capture, 2nd mAb F [D00012 FIG. 16B]
[7] = target: huIL-17RA-FLAG-polyHis (human) (UniProt Q96F46); experiment: Luminex binning; huIgG on bead 72 as capture, 2nd mAb M [D00012 FIG. 16B]
[8] = target: huIL-17RA-FLAG-polyHis (human) (UniProt Q96F46); experiment: Luminex binning; huIgG on bead 72 as capture, 2nd mAb I [D00012 FIG. 16B]
[9] = target: huIL-17RA-FLAG-polyHis (human) (UniProt Q96F46); experiment: Luminex binning; huIgG on bead 72 as capture, 2nd mAb J [D00012 FIG. 16B]
[10] = target: huIL-17RA-FLAG-polyHis (human) (UniProt Q96F46); experiment: Luminex binning; huIgG on bead 72 as capture, 2nd mAb K [D00012 FIG. 16B]
[11] = target: huIL-17RA-FLAG-polyHis (human) (UniProt Q96F46); experiment: Luminex binning; huIgG on bead 72 as capture, 2nd mAb L [D00012 FIG. 16B]
[12] = target: huIL-17RA-FLAG-polyHis (human) (UniProt Q96F46); experiment: Luminex binning; huIgG on bead 72 as capture, 2nd mAb N [D00012 FIG. 16B]
[13] = target: huIL-17RA-FLAG-polyHis (human) (UniProt Q96F46); experiment: Luminex binning; huIgG on bead 72 as capture, 2nd mAb O [D00012 FIG. 16B]
[14] = target: huIL-17RA-FLAG-polyHis (human) (UniProt Q96F46); experiment: Luminex binning; huIgG on bead 72 as capture, 2nd mAb Q [D00012 FIG. 16B]
[15] = target: huIL-17RA-FLAG-polyHis (human) (UniProt Q96F46); experiment: Luminex binning; huIgG on bead 72 as capture, 2nd mAb R [D00012 FIG. 16B]

## huIgG (antibody)
[1]
  normalized MFI: 84
[2]
  normalized MFI: 37
[3]
  normalized MFI: 54
[4]
  normalized MFI: 123
[5]
  normalized MFI: 26
[6]
  normalized MFI: 140
[7]
  normalized MFI: 32
[8]
  normalized MFI: 22
[9]
  normalized MFI: 35
[10]
  normalized MFI: 100
[11]
  normalized MFI: 34
[12]
  normalized MFI: 56
[13]
  normalized MFI: 95
[14]
  normalized MFI: 28
[15]
  normalized MFI: 50
